We go through 16 sequences from a protein production outcome set (Wang et al. 2014).

The series in a line: label from the status in PepcDB records.
As for “MASNGHTLRLVINRDKHDSVIRGLYLVTDHDDNLIPRVEAAIDGGARVVQYRNKNQDRESRLALGLELRELCRRRSIPFIVNDDLEMAVSLKADGLHLGQGDGDPREARRVLGPGKIIGVSTHTLSEALEAQAAGVDYIGLGAMFPSRSKEVEHVAGSELLAAIRSSISIPIVAIGGITRDNGASVIDAGADAVAVISAVLSHPDPALAATEIALLFNRRAPFPRGSVLTVAGSDSGGGAGIQADLKTVTLLGSYGSSVLTALTAQNTRGVSGIHGVPPAFVADQLDAVFSDIPVDVVKTGMLFSAETIVAIAAKLTEYRRRMVVVDPVMVAKGGANLIDRGAVSVLKERLFPLAYLVTPNIPEAERLTGANISDEESMREAARRLHRLGARNVLLKGGHLLAGDSVDILFDGAAFHRFVSPRILSKNTHGTGCTFASAIATYLAQGDPLREAIARAKRYITAAIRLAQPLGRGHGPVNHILAAEDVRDR”, the protein production result is “failed”.
For the sequence “MASNSRSSISPWTFSQNKMFERALAVYDKDTPDRWHNVAKAVGGKTVEEVKRHYDILVEDLINIETGRVPLPNYKTFESNSRSINDFDTRYITKYLYMMLSIYFDNHSSDFEKFSQKVLVSYISLV”, the protein production result is given as “failed”.
On to “MASPATFQFSRTKLNLQINLVERKSPSKLSFPLLFRDQAKSTPIRFPVIRASSSSSASNHKPSLLKTTFISLTAAAALFSASFYFVNKRAAMTPVAVVETTLEKHLETQSNDVNALSLLTEIKFKSDKHEQAIVFLDRLIEIEPYERKWPAMKARILSYHGKSESAIEAFEEILEKDPIRVDAYHYLVMEYYNSKPKLTEIEKRINKVIRRCKKEKKTKEILGFRMLIAQIRFIEGKSVEAIRICEELVKEDPNDFTIYLFQGVVYTLMNKGEEAAKQFEHVARVIPRNHPSRETAARTTNSNEWRVIVAYDNVYCYLSTFARLSMASLFNKFG”, for which the protein production entry is “failed”.
“MASQVTAGSSGPVCFLTVGLRLPSARGQPVVSNFNQPRPPQRQRWVDSLLGVSLVALVVAAALPLLLPLVRLPGGSSARDRELAAAQATAFQTVLQRDPDNLSALRSLIGVYLQQQQLQAAIAPLQRLARLQPQQPAYRVLLAQTQAQLGDREAAAQTYRQILETAPTNLEALRGFTQLLLTQKQPTAAVDLLQKARQTDKITPADQVSIDLMLAQVYANQGQIDDAIALYDRSAQNNGRDFRPLLAKALLLKQQGDLQKATPIFQEAIAIAPAQYRDQIRQLSPASMPATPPTQPATKTPPTAPPPPPN”: the protein production entry is given as “failed”.
As for “MASRSASQASDALSQHGCPFSVRAKAFHGGRCMHELIGDITLSILFAWLLGLAAHFFRQPLILAYLIGGFVIGPFGLGWVKSENSISVISELGLIFMLFMIGLEIDLKKIIRAGPVILVAAGGQIAGGVLLGLAFFVGIGLSLGGGHFDALYLTVACALSSTVIIVKVLYEKRELDTLPGRITLGILVLQDIFAILFLAVQPSLADLQISVLLLSIARVVALVATALALSRYVLPWLFHRIARTPELVLLGALAWCFLIGEIAERLHLSREMGALVAGVSLSTFPYALDVTAKVTTLRDFFITLFFVALGMTIPIPNGSVIGLALAIAVFTLASRLLTTFLPLYLMKQGLRASLLPALNLAQISEFSLVVIQTGVAAGHIGTQTASAASFAFVLLAVLSTFVIMRSDPITRRAIGTLTKFGFRDLGQQQSGAEAAAEAGHGAVHRIVILGFFRAASALVSEIEQHTPELLKQISVIDFNPMVYRTLTERGMHVIYGDISNVDTLLHAGVAKAEIIILSVPDSLLKGATNERLVRHVRALNPNAQIVATADLLADVEAMYQAGADYVTVTRLADARELFEVIEAADNGLLSDKRAALDARLAERREVLP”, the entry is “failed”; as for “MASSSSSSEHKVFLSFRREDTGRTFVSHLYRSLDQKEIRTYKFENQQAGDGKRISSEVKQAINESRIAVVVISENYVSSVLCLDVLAKIIERLPLIKIETVFYEVDPGDLTRPTGKFADDFRRHEARENRRTVNRWRDALDQLVSITNSNFCSRNWEDDSKMIDDLIIRLINIYFSKYYTPDVDIIAETTVGLDASVLGLMTDIDMKYKLNSLSGSVESGFGLERYALEATSVMDDMSNESPSPTSDDSNGLVGMYRHKKAVYGLLDLESKNQVRTIGIWGFQGVGKTTLAECVFDDISSHFQHYCFLTNANKIYQNRISPSLLKHLTRRRSSEDIFDAIKPSLVNRKVLFVVDGVDATYNEQFNDAMKVTRWLGPGSRIIMTSRFKSSLKFGGAKYEMECLRYEEALQLFSLYAFKKTYPLIGFELFSIRAVHFAGRLPLSLKVLGSFLYDKDEESWKRTLHKLEASQDNDRRYVSNYIGAGEYLPRRQIELEQYVSPDEEEYSPSYIMSL”, “failed”.
For “MASTTRPAPTVGFDLDMTLIDSRPGIRACYVELSARTGTYVDADLAVTRLGPPLAEELANWFPAEEIEAVADLYREIYPAYAIEPTLALPGAREAVTAVRGAGGRAVVVTAKYEPNAKLHLAHLGIEPDAVIGGLWAEQKAVALREHDADVYVGDHVGDVRGARAAGARSVAVASGPCDAGELRAAGADVVLADLTAFPEWLAAYRDGEGDAEGLDAARA”, the protein production entry was “failed”.
As for “MASTVDSNFFSSVPALHSNLGLLSPDQIELAKILLENGQSHLFQQWPELGVDDKEKLAFFDQIARLNSSYPGGLAAYIKTAKELLADSKVGKNPYDGFSPSVPSGENLTFGTDNFIEMEKRGVVEARNAAFVLVAGGLGERLGYNGIKVALPRETTTGTCFLQHYIESILALQEASNKIDSDGSERDIPFIIMTSDDTHSRTLDLLELNSYFGMKPTQVHLLKQEKVACLDDNDARLALDPHNKYSIQTKPHGHGDVHSLLYSSGLLHKWLEAGLKWVLFFQDTNGLLFNAIPASLGVSATKQYHVNSLAVPRKAKEAIGGISKLTHVDGRSMVINVEYNQLDPLLRASGFPDGDVNCETGFSPFPGNINQLILELGPYKDELQKTGGAIKEFVNPKYKDSTKTAFKSSTRLECMMQDYPKTLPPTARVGFTVMDIWLAYAPVKNNPEDAAKVPKGNPYHSATSGEMAIYRANSLILQKAGVKVEEPVKQVLNGQEVEVWSRITWKPKWGMIFSDIKKKVSGNCEVSQRSTMAIKGRNVFIKDLSLDGALIVDSIDDAEVKLGGLIKNNGWTMESVDYKDTSVPEEIRIRGFRFNKVEQLEKKLTQPGKFSVED”, the entry is “failed”.
“MASYHARQRDPLLDQNMQAMLERRGRELLGIGLLIVAFLFMLILGTYSPEDPGWMVATDEPAQNALGRIGAAISSTLMIIAGKGSWGLPIVAGAWGARFLLHRGEERALGRIVFAVIAIALGSIYAATHVPGSEWTHSFGLGGLFGDTVLGALLEILPLPAAYGLKLLSLLVGGGLVAMGLFVCGFDLRELRQVTQFLLVGLVVTYNAALQLAGRGSVQAAQLMQEKIRAHREGRAAVDAAAVRGEARAEAMPRPRSRFREPEPEPEPAPRMGFLSRLRAQAPEDDPEPVIEEAAWGRPATLRADTTRPAALRSEGLRAEPRHVEPAPAPAQPRTGLLARMPQIIRRVTDPEAELVEHALSDAAANAEGPTEDRIKARINDVIRSRVRQSTGPLSPIAAAIARREPPMARRRSGPAPMVATRRAPMELPPEPPVVAGAGEKIRFASGMVASRMPGAATARLAVSALEADAAPAHAPRLMAEAYDAYEACETGEPILTAREQLAYADEDEAAAYDEAYAAEEEVESYAAEEAAWLPHEDFDDSTDWAPEPAAPAAPMMAPAMAPKPAAAPAARAPAVRPPEAQPKPRFEEQETHYELPPLSLLACPSTIVRNTLSVDALKENARMLESVLEDYGVKGEIVDAQAGPVVTLYELEPAPGLKASRVIGLADDIARSMSALSARVSTVPGRTVIGIELPNVSREKVILREILAARDFGDSSMRLPLALGKDIAGRPVVANLAKMPHLLIAGTTGSGKSVAINTMILSLLYKLTPEECRLIMIDPKMLELSVYDGIPHLLSPVVTDPKKAVVALKWVVGEMEERYRKMSKLGVRNIEGYNGRVSEALEKGEMFKRTIQTGFDEDTGEPVFETEDLQPVRLPFIVVVVDEMADLMMVAGKEIEACIQRLAQMARASGIHLIMATQRPSVDVITGTIKANFPTRISFQVTSKIDSRTILGEQGAEQLLGMGDMLYMAGGAKITRIHGPFVSDEEVEEIVNHLKSFGPPKYMSGVVEGPEDDRADDIDAVLGLGGNTDSEDALYDQAVAIVAKDRKCSTSYIQRKLGIGYNKAARLVEQMEEQGVVTAANHVGKREILLPEQ”: the protein production result was “failed”.
With “MATAASNHYSLLTSSASIVHAEPPGGMQQGAGGYREAQSLVQGDYGALQSNGHPLSHAHQWITALSHGGGGGGGGGGGGGGGGGGGGGDGSPWSTSPLGQPDIKPSVVVQQGGRGDELHGPGALQQQHQQQQQQQQQQQQQQQQQQQQQRPPHLVHHAANHHPGPGAWRSAAAAAHLPPSMGASNGGLLYSQPSFTVNGMLGAGGQSAGLHHHGLRDAHDEPHHADHHPHPHSHPHQQPPPPPPPQGPPGHPGAHHDPHSDEDTPTSDDLEQFAKQFKQRRIKLGFTQADVGLALGTLYGNVFSQTTICRFEALQLSFKNMCKLKPLLNKWLEEADSSSGSPTSIDKIAAQGRKRKKRTSIEVSVKGALESHFLKCPKPSAQEITSLADSLQLEKEVVRVWFCNRRQKEKRMTPPGGTLPGAEDVYGGSRDTPPHHGVQTPVQ”, the protein production entry is reported as “failed”.
Turning to “MATANEHLVAWLRDAHAMEEQAITMLTSQSSRLENYPELKTRIDRHLQETKDQAAMLERCLERLDGGTSSIKDISGKIVAFGQGLSGLFVSDEVVKGTLASYTFEHMEIASYRILIAAAEQAGDQETKRVCESILQQEIAMAEWLAQNAGEITRKFLERDQRDVTAKH”, the protein production entry is on record as “not failed”.
In the case of “MATAPRPLREQYLHFQPISTRWHDNDIYGHVNNVTYYAFFDTAVNTYLIERGGLDIQGGEVIGLVVSSSCDYFAPVAFPQRIEMGLRVARLGNSSVQYELALFLEGQREACAAGRFVHVFVERRSSRPVAIPQELRDALAALQSSAQ”, the protein production entry is recorded as “not failed”.
Take “MATATTTKTKTKATKKTRAKKATKKRATPKKNLVIVESPAKAKTIEKYLGRNYKVVASVGHIRDLKKSSMSIDFENNYEPQYINIRGKGPLIKELKKEAKKAKKVFLASDPDREGEAISWHLSHILGLEPEDKNRVVFNEITKDAVKNAFAEPRAIDMDLVDAQQARRVLDRIVGYSISPLLWKKVKKGLSAGRVQSVALKLIIDRENEIKAFKPEEYWTIDGAFKKGAKKFQASFYGLDGKKLKLNNNDDVKDVLSRIISDDFNVDKVEKKERRRNAPLPYTTSSLQQDAANKINFRTRKTMMVAQQLYEGINLGSGAQGLITYMRTDSTRISPVAQNQAAEFITERYGSKYSKHGSKVKNSSAAQDAHEAIRPSNVFQTPESIAKYLDKDQLKLYTLIWNRFVASQMTAAVFDTMKVTLSQNGVIFTANGSQIKFDGYMAVYNDSDKNKMLPEMAEGDTIKKVVTTPEQHFTQTPARYSEATLIKTLEENGVGRPSTYAPTLDVIQRRYYVKLVAKRFEPTELGEIVNSLIVEFFPDIVDVKFTAEMEAKLDKVEIGKEQWQKVIDEFFKPFQKELEKAEEGIEKIQIKDEPAGFDCDLCGHPMVIKLGRYGKFYACSNFPDCHNTKAITKEIGVTCPTCGQGQVIERKTKRNRVFYGCDRYPDCEFTSWDIPIGRNCPKSGDYLVEKKVRGGGKQVICSNEECDYKESVIK”: the protein production entry is “failed”.
To “MATDAPPPSKEEPPSQEEHRLPSAEEFSEVQQSAEFAELRRSFRSFAFPLTVAFVAWYLLYVLLSNYAGGFMGTKLFGNINVAFVFGIAQFVTTFLIAWWYSRHAAAKLDPKAEAIKTRMEGGA” belongs “failed”; to “MATDTTVQLRAGWQGRFYEDFAVGDVYKHPYGRTVTETDNVWFTNLTMNANPMHFNAAYASGTEFDERLVNGLFVIALSVGMSVVDVSANATANLGYDDIQHHAPVFHGDTLFAESEVLSKRESESRPHVGMVTTELRTYTQDGELVLSLERTPMVRKRGLEHHHHHH”, “not failed”.
For “MATESSESEEEGKISGGNYKLIIDDDLREMGKNAAWSVSSYGLQPHLINIQFQKKVKLQLVVLYVDFKLDESYTPSKISIRAGDGFHNLKEIKSVELVKPTGWVCLSLSGTDPRETFCQESR”, the protein production entry is listed as “failed”.
